According to article PMC2570039 (Molecular cell, 2008):

What was measured:
[1] = target: FtsK50C (50 amino acids from FtsKN fused to FtsKC) (E. coli); assay: SEC
[2] = target: FtsK50C (50 amino acids from FtsKN fused to FtsKC) (E. coli); assay: […]
crystal structure = target: the molecule itself; assay: crystal structure

For “FtsK50C (50 amino acids from FtsKN fused to FtsKC) (domain or fragment)”, the stoichiometry N [1] was 6 and the stoichiometry N [2] was 6.

B1: Seleno-methionine-substituted Pseudomonas aeruginosa FtsK γ-domain (GGS-742-811) (domain or fragment)
chain: GGSEGSEDDPLYDEAVRFVTESRRASISAVQRKLKIGYNRAARMIEAMEMAGVVTPMNTNGSREVIAPAPVRD
modifications: seleno-methionine-substituted
B1: binds (crystal structure).
